The values that follow come from article doi:10.1101/2022.01.27.478073 (bioRxiv, 2022).

The target in the test is T1, His-AtNRT1.4 (Arabidopsis, UniProt Q9SZY4 1-577).
T1 sequence (looked up): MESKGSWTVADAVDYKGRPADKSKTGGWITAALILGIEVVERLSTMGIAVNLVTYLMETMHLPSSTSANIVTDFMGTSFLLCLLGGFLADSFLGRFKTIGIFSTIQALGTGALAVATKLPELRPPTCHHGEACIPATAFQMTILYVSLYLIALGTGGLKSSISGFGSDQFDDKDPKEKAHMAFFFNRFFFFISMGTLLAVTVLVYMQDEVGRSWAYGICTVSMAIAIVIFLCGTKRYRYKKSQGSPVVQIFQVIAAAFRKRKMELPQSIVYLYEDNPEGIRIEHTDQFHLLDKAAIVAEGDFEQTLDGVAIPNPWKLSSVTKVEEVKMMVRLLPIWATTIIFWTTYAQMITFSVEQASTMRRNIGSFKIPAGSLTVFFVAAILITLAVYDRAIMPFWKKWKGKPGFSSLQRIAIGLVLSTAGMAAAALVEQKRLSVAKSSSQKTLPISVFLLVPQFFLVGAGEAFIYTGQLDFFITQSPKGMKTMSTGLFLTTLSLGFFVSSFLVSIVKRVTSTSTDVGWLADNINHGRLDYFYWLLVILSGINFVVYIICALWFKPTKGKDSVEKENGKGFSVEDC
Description: pull-down.

B1: GST-AtGPA1 (natural protein, Arabidopsis, UniProt P18064 1-383, looked up)
chain: MGLLCSRSRHHTEDTDENTQAAEIERRIEQEAKAEKHIRKLLLLGAGESGKSTIFKQIKLLFQTGFDEGELKSYVPVIHANVYQTIKLLHDGTKEFAQNETDSAKYMLSSESIAIGEKLSEIGGRLDYPRLTKDIAEGIETLWKDPAIQETCARGNELQVPDCTKYLMENLKRLSDINYIPTKEDVLYARVRTTGVVEIQFSPVGENKKSGEVYRLFDVGGQRNERRKWIHLFEGVTAVIFCAAISEYDQTLFEDEQKNRMMETKELFDWVLKQPCFEKTSFMLFLNKFDIFEKKVLDVPLNVCEWFRDYQPVSSGKQEIEHAYEFVKKKFEELYYQNTAPDRVDRVFKIYRTTALDQKLVKKTFKLVDETLRRRNLLEAGLL
Regarding B1, the binding result is “binds”.
